Experimental findings from patent US20060083742A1 are described below.

In one test the target is YFP-Bcl-XL (human) (UniProt Q07817). Briefly: acceptor-photobleaching FRET on single mitochondria of living cells after PKC agonist.
The next test concerns the target CFP-Bcl-XL (human) (UniProt Q07817). Put plainly: FRET on mitochondria of bryostatin-1 treated Cos-1 cell, with the fluorophores as the legend of FIG. 5A names them.

As to “CFP-K-Ras12V (from UniProt P01116 1-186)”, in the test with YFP-Bcl-XL (human), the FRET efficiency is 17%.

In the test with CFP-Bcl-XL (human), “YFP-K-Ras12V (from UniProt P01116 1-186)” gave an FRET efficiency of 17%.
